Experimental data from patent US20220267475A1 (published 2022).

Legend:
[1] = target: CD47 antigen expressed on CHO-K1 cells (UniProt Q08722 19-323); test: flow
[2] = target: T1, TIGIT antigen expressed on CHO-K1 cells (UniProt Q495A1 22-244); test: flow cytometry
T1 chain: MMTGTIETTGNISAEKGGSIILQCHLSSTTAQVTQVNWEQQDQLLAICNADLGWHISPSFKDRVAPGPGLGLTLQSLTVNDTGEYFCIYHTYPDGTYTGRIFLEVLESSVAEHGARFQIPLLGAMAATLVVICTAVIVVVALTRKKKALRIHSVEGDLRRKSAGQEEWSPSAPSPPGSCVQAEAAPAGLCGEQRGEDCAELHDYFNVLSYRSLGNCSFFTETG

CD47 antigen expressed on CHO-K1 cells, sequence (Q08722 19-323): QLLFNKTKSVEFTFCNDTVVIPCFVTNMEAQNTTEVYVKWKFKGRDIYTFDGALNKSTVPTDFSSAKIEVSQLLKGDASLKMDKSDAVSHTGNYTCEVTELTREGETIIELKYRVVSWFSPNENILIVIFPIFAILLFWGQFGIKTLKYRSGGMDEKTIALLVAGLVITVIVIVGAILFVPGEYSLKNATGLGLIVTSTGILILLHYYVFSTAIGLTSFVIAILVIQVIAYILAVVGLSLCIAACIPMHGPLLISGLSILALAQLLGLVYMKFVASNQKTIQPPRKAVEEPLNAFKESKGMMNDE

B1: TIGIT-G9-HN (bispecific antibody)
heavy: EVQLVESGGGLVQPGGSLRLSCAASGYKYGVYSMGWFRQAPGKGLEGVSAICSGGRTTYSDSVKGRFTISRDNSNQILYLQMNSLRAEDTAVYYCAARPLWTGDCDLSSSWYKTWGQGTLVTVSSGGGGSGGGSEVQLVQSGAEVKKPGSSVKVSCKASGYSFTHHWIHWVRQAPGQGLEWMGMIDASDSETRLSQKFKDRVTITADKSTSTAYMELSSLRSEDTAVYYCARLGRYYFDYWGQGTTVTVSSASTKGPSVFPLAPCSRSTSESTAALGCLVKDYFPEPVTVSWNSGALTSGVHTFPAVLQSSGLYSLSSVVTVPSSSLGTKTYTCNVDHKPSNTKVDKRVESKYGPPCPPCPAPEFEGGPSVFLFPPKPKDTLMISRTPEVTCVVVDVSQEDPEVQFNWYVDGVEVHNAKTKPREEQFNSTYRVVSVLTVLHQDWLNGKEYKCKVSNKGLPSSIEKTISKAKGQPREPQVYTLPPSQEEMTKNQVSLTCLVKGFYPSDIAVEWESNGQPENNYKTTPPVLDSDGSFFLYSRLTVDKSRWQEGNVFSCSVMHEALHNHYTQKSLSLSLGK
light: EIVLTQSPATLSLSPGERATLSCRASENVGTYISWYQQKPGQAPRLLIYGASNRYTGIPARFSGSGSGTDFTLTISSLEPEDFAVYYCGESYGHLYTFGGGTKVEIKRTVAAPSVFIFPPSDEQLKSGTASVVCLLNNFYPREAKVQWKVDNALQSGNSQESVTEQDSKDSTYSLSSTLTLSKADYEKHKVYACEVTHQGLSSPVTKSFNRGEC
Q: B1 was tested. Which EC50 [1] did it give?
A: 0.852 nM

Q: And the EC50 [2]?
A: 0.168 nM

B2: TIGIT-G9-HC (bispecific antibody)
heavy: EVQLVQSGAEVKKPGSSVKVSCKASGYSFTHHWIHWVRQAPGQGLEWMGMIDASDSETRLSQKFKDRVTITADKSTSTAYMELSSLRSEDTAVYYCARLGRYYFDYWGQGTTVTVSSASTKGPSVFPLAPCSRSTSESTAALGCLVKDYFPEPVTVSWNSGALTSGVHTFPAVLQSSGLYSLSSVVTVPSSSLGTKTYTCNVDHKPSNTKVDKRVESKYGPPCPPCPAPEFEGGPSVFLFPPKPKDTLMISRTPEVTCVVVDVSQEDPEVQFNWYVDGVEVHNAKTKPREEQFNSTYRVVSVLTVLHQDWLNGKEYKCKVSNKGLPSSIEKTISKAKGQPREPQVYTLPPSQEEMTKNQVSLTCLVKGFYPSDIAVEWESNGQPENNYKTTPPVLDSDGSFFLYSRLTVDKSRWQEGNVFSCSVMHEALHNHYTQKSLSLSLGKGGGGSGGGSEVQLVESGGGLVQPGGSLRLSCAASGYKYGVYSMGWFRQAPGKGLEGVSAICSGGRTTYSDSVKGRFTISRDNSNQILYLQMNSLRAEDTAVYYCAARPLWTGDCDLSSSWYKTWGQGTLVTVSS
light: EIVLTQSPATLSLSPGERATLSCRASENVGTYISWYQQKPGQAPRLLIYGASNRYTGIPARFSGSGSGTDFTLTISSLEPEDFAVYYCGESYGHLYTFGGGTKVEIKRTVAAPSVFIFPPSDEQLKSGTASVVCLLNNFYPREAKVQWKVDNALQSGNSQESVTEQDSKDSTYSLSSTLTLSKADYEKHKVYACEVTHQGLSSPVTKSFNRGEC
Q: What does the source list for B2?
A: EC50 [1]: 0.686 nM; EC50 [2]: 0.429 nM

B3: TIGIT-E-HC (bispecific antibody)
heavy: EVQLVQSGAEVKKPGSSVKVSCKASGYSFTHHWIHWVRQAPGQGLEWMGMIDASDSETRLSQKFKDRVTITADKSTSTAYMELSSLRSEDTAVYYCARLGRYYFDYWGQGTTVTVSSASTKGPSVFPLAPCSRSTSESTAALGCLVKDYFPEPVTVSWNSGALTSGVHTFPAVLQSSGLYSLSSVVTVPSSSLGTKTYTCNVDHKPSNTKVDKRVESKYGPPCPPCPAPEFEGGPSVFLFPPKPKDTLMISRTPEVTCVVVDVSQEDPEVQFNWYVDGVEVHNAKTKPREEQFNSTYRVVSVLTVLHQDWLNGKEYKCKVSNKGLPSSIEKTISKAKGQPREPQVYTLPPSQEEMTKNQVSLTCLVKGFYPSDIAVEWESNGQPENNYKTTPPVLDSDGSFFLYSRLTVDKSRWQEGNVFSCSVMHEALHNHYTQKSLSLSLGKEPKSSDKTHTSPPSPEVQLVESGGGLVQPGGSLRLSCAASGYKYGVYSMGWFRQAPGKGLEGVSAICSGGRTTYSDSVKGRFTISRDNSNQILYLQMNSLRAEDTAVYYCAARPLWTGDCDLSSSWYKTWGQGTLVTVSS
light: EIVLTQSPATLSLSPGERATLSCRASENVGTYISWYQQKPGQAPRLLIYGASNRYTGIPARFSGSGSGTDFTLTISSLEPEDFAVYYCGESYGHLYTFGGGTKVEIKRTVAAPSVFIFPPSDEQLKSGTASVVCLLNNFYPREAKVQWKVDNALQSGNSQESVTEQDSKDSTYSLSSTLTLSKADYEKHKVYACEVTHQGLSSPVTKSFNRGEC
Q: For B3, which EC50 [2] is on record?
A: 0.52 nM

B4: TIGIT-E-LC (bispecific antibody)
heavy: not shown
light: EIVLTQSPATLSLSPGERATLSCRASENVGTYISWYQQKPGQAPRLLIYGASNRYTGIPARFSGSGSGTDFTLTISSLEPEDFAVYYCGESYGHLYTFGGGTKVEIKRTVAAPSVFIFPPSDEQLKSGTASVVCLLNNFYPREAKVQWKVDNALQSGNSQESVTEQDSKDSTYSLSSTLTLSKADYEKHKVYACEVTHQGLSSPVTKSFNRGECEPKSSDKTHTSPPSPEVQLVESGGGLVQPGGSLRLSCAASGYKYGVYSMGWFRQAPGKGLEGVSAICSGGRTTYSDSVKGRFTISRDNSNQILYLQMNSLRAEDTAVYYCAARPLWTGDCDLSSSWYKTWGQGTLVTVSS
Q: Which EC50 [2] does the source give for B4 here?
A: 0.334 nM

B5: TIGIT-G9-LN (bispecific antibody)
heavy: not shown
light: EVQLVESGGGLVQPGGSLRLSCAASGYKYGVYSMGWFRQAPGKGLEGVSAICSGGRTTYSDSVKGRFTISRDNSNQILYLQMNSLRAEDTAVYYCAARPLWTGDCDLSSSWYKTWGQGTLVTVSSGGGGSGGGSEIVLTQSPATLSLSPGERATLSCRASENVGTYISWYQQKPGQAPRLLIYGASNRYTGIPARFSGSGSGTDFTLTISSLEPEDFAVYYCGESYGHLYTFGGGTKVEIKRTVAAPSVFIFPPSDEQLKSGTASVVCLLNNFYPREAKVQWKVDNALQSGNSQESVTEQDSKDSTYSLSSTLTLSKADYEKHKVYACEVTHQGLSSPVTKSFNRGEC
Q: For B5, which EC50 [2] is on record?
A: 0.155 nM

B6: anti-CD47 monoclonal antibody (antibody, V domains shown)
VH: EVQLVQSGAEVKKPGSSVKVSCKASGYSFTHHWIHWVRQAPGQGLEWMGMIDASDSETRLSQKFKDRVTITADKSTSTAYMELSSLRSEDTAVYYCARLGRYYFDYWGQGTTVTVSS
VL: EIVLTQSPATLSLSPGERATLSCRASENVGTYISWYQQKPGQAPRLLIYGASNRYTGIPARFSGSGSGTDFTLTISSLEPEDFAVYYCGESYGHLYTFGGGTKVEIKR
Q: What does the source list for B6?
A: EC50 [1]: 0.00843 nM; EC50 [2]: ~0.443 nM

B7: TIGIT-G9-LC (bispecific antibody)
heavy: not shown
light: EIVLTQSPATLSLSPGERATLSCRASENVGTYISWYQQKPGQAPRLLIYGASNRYTGIPARFSGSGSGTDFTLTISSLEPEDFAVYYCGESYGHLYTFGGGTKVEIKRTVAAPSVFIFPPSDEQLKSGTASVVCLLNNFYPREAKVQWKVDNALQSGNSQESVTEQDSKDSTYSLSSTLTLSKADYEKHKVYACEVTHQGLSSPVTKSFNRGECGGGGSGGGSEVQLVESGGGLVQPGGSLRLSCAASGYKYGVYSMGWFRQAPGKGLEGVSAICSGGRTTYSDSVKGRFTISRDNSNQILYLQMNSLRAEDTAVYYCAARPLWTGDCDLSSSWYKTWGQGTLVTVSS
Q: B7 was tested. Which EC50 [2] did it give?
A: 0.658 nM

B8: TIGIT-E-LN (bispecific antibody)
heavy: not shown
light: EVQLVESGGGLVQPGGSLRLSCAASGYKYGVYSMGWFRQAPGKGLEGVSAICSGGRTTYSDSVKGRFTISRDNSNQILYLQMNSLRAEDTAVYYCAARPLWTGDCDLSSSWYKTWGQGTLVTVSSEPKSSDKTHTSPPSPEIVLTQSPATLSLSPGERATLSCRASENVGTYISWYQQKPGQAPRLLIYGASNRYTGIPARFSGSGSGTDFTLTISSLEPEDFAVYYCGESYGHLYTFGGGTKVEIKRTVAAPSVFIFPPSDEQLKSGTASVVCLLNNFYPREAKVQWKVDNALQSGNSQESVTEQDSKDSTYSLSSTLTLSKADYEKHKVYACEVTHQGLSSPVTKSFNRGEC
Q: B8 was tested. Which EC50 [2] did it give?
A: 0.0757 nM

B9: TIGIT-E-HN (bispecific antibody)
heavy: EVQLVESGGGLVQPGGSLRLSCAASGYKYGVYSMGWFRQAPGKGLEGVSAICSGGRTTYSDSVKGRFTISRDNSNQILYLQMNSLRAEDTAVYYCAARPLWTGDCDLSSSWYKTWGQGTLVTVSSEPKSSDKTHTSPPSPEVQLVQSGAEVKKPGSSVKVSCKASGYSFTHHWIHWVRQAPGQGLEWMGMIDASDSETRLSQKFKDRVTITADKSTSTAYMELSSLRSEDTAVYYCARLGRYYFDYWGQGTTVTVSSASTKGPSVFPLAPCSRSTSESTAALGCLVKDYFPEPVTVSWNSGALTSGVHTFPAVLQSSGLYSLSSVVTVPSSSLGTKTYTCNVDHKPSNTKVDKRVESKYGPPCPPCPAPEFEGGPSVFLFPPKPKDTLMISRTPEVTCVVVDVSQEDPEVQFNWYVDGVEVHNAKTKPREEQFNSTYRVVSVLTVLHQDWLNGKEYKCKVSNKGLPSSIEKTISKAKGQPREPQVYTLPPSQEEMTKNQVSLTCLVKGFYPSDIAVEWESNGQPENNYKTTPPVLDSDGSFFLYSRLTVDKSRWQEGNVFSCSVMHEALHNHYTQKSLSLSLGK
light: EIVLTQSPATLSLSPGERATLSCRASENVGTYISWYQQKPGQAPRLLIYGASNRYTGIPARFSGSGSGTDFTLTISSLEPEDFAVYYCGESYGHLYTFGGGTKVEIKRTVAAPSVFIFPPSDEQLKSGTASVVCLLNNFYPREAKVQWKVDNALQSGNSQESVTEQDSKDSTYSLSSTLTLSKADYEKHKVYACEVTHQGLSSPVTKSFNRGEC
Q: How did the EC50 [1] turn out when B9 was run?
A: 0.65 nM

Q: And the EC50 [2]?
A: 0.132 nM
